In US10538591B2, “Anti-fibulin-3 antibodies and uses thereof” (THE BRIGHAM AND WOMEN'S HOSPITAL, INC., priority 2014, dated 2020):

T1: purified human fibulin-3 (Homo sapiens, UniProt Q12805)
T1 construct: purchased ORIGENE
T1 sequence (Q12805 18-493): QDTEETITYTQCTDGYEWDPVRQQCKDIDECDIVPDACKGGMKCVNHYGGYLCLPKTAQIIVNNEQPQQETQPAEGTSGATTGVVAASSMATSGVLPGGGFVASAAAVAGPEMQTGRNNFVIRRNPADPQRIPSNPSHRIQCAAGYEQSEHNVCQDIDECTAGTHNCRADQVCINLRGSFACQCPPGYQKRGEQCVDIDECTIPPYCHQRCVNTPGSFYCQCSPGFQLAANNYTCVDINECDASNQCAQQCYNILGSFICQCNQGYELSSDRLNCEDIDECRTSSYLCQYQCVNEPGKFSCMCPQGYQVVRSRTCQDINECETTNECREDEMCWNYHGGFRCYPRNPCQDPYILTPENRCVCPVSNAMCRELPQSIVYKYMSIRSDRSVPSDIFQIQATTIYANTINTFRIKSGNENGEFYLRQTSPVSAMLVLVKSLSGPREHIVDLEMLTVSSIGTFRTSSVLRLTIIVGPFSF

B1: scFv428.2: single-chain variable fragment derived from mAb428.2, VL-(G4S)3-VH with Myc and 6xHis tags; SEQ ID NOS: 25, 26 (protein)
scFv: DDIKMTQSPSSMYASLGERVTITCKASQDIKSYLSWHQQKPWKSPKTLIYYATSLADGVPSRFSGSGSGQDYSLTISSLESDDTATYYCLQHGKSPYTFGGGTKLEIKGGGGSGGGGSGGGGSQIQLVQSGPELKKPGETVKISCKASGYSFTTYGMSWVKQAPGKGLKWMGWINTYSGVPTYADDFKGRFAFFLETSASTAYLQINNLKNEDTATYFCARWVDYWGQGTTLTVSSEQKLISEEDLNMHTGHHHHHH
B2: chimeric mouse/human mAb428.2: recombinant chimeric antibody with VL and VH of mAb428.2; light chain SEQ ID NO: 23, heavy chain SEQ ID NO: 24 (antibody)
heavy: MYRMQLLSCIALSLALVTNSEVQLVEQIQLVQSGPELKKPGETVKISCKASGYSFTTYGMSWVKQAPGKGLKWMGWINTHSGVPTYADDFKGRFAFFLETSASTAYLQINNLKNEDTATYFCARWVDYWGQGTTLTVSSGTLVTVSSASTKGPSVFPLAPSSKSTSGGTAALGCLVKDYFPEPVTVSWNSGALTSGVHTFPAVLQSSGLYSLSSVVTVPSSSLGTQTYICNVNHKPSNTKVDKKVEPKSCDKTHTCPPCPAPELLGGPSVFIFPPKPKDVLTITLTPKVTCVVVDISKDDPEVQFSWFVDDVEVHTAQTQPREEQFNSTFRSVSELPIMHQDWLNGKEFKCRVNSAAFPAPIEKTISKTKGRPKAPQVYTIPPPKEQMAKDKVSLTCMITDFFPEDITVEWQWNGQPAENYKNTQPIMDTDGSYFVYSKLNVQKSNWEAGNTFTCSVLHEGLHNHHTEKSLSHSPGK
light: MQLLSCIALSLALVTNSDIQMTQSPSSLSASVGDRVTITCRASQSVSSADIKMTQSPSSMYASLGERVTITCKASQDIKSYLSWHQQKPWKSPKTLIYYATSLADGVPSRFSGSGSGQDYSLTISSLESDDTATYYCLQHGKSPYTFGGGTKLEIKGTKVEIKRTVAAPSVFIFPPSDSQLKSGTASVVCLLNNFYPREAKVQWKVDNALQSGNSQESVTEQDSKDSTYSLSSTLTLSKADYEKHKVYACEVTHQGLSSPVTKSFNRGEC

Experiments:
U251MG glioma cells = assay: Temozolomide combination viability assay in U251MG cells; type: cell-based, human; conditions: increasing concentrations, 72 h
Description: The antibody increased the cytotoxicity of TMZ by 30% in average.
Antibodies against fibulin-3 can potentiate the effect of a chemotherapeutic drug. Glioma cells (U251MG cell line) were cultured in presence of increasing doses of temozolomide, which is the standard-of-care drug for treatment of malignant glioma. The drug was combined with antibody vehicle (PBS) or with a fixed dose of anti-Fib3/911 antibody. Viability of the cells was analyzed after 72 h, which is a time period at which temozolomide has only a modest effect on glioma cells.

purified human fibulin-3 = molecular target: T1, purified human fibulin-3; assay: Western blot and dot-blot detection of fibulin-3; type: binding; conditions: for detection of fibulin-3 by Western blotting: SDS-PAGE, reducing and/or non-reducing conditions
Description: CNSI glioma cells were transfected with fibulin-3 cDNA (fib3-OE cells) or a control plasmid (control cells) and cultured for 24 h in serum-free conditions. Conditioned medium was collected and probed by Western blotting with anti-Fib3/911 (911), anti-Fib3/912 (912), or their respective preimmune sera (antibodies and sera were used at 1/5000 dilution).
Two rabbit polyclonal antibodies were commissioned against the 23-amino acid peptide sequence of fibulin-3 involved in Notch activation. The peptide was minimally modified to facilitate the formation of a disulfide bridge necessary to form a conformational, tri-dimensional epitope (FIG. 4). Antibodies against fibulin-3 (“anti-Fib3/911” and “anti-Fib3/912”) were purified by affinity chromatography, aliquoted, and prepared in phosphate-buffered saline (PBS) solution for all subsequent tests.
Purified human fibulin-3 (200 ng/lane, ORIGENE) was subjected to SDS-PAGE in reducing and non-reducing conditions and probed with affinity-purified mAb428.3C11 (0.4 to 20 μg/ml, diluted in PBS from a 2 mg/ml stock).
Concentrated, serum-free culture medium from HEK293 cells (1 mg/ml total protein) was probed with anti-human IgG secondary antibody (HRP conjugate) to detect the chains of antibody in reducing and non-reducing conditions. C) Concentrated medium from HEK293 cells (1 mg/ml total protein) was directly used to probe purified human fibulin-3 (resolved by SDS-PAGE in non-reducing conditions).

Description for U251 glioblastoma cells: In FIG. 27C, U251 glioblastoma cells (5,000 cells/well) were incubated in conditioned medium from control-HEK293 or scFv-expressing HEK293 (1.5 mg/ml total protein). After 48 h cell viability was measured using the CellTiter-Glo kit to measure ATP production (PROMEGA cat #G7572).

| Molecule | cytotoxic effect of TMZ alone (U251MG glioma cells) | detection of fibulin-3 by Western blotting (purified human fibulin-3) | detection of native fibulin-3 by dot-blotting (purified human fibulin-3; non-reduced fibulin-3 on nitrocellulose, scFv428.2 medium 1 mg/ml, mAb428.2 1 μg/ml) | cytotoxicity of culture media with scFv (U251 glioblastoma cells) |
| --- | --- | --- | --- | --- |
| Cn1nnc2c(C(N)=O)ncn2c1=O [TMZ, temozolomide] | modest, dose-dependent cytoxic effect | – | – | – |
| B1 | – | can detect denatured fibulin in reducing and non-reducing conditions | able to detect native fibulin-3 by dot-blotting | induce cytotoxicity in glioblastoma cells |
| B2 | – | detects the same pattern of bands as purified mouse mAb428.2 | – | – |
